From US20190010247A1 (MINOMIC INTERNATIONAL, published 2019) come the findings set out here.

Test [1] addresses T1, GPC-1 (MIL-38 antigen) expressed by human cancer cell lines DU-145, T-24, PANC-1 and MDA-MB-231 (human, UniProt P35052 24-530).
T1 construct: whole, on cells; also called GPC-1 on the cell surface
T1 sequence (looked up): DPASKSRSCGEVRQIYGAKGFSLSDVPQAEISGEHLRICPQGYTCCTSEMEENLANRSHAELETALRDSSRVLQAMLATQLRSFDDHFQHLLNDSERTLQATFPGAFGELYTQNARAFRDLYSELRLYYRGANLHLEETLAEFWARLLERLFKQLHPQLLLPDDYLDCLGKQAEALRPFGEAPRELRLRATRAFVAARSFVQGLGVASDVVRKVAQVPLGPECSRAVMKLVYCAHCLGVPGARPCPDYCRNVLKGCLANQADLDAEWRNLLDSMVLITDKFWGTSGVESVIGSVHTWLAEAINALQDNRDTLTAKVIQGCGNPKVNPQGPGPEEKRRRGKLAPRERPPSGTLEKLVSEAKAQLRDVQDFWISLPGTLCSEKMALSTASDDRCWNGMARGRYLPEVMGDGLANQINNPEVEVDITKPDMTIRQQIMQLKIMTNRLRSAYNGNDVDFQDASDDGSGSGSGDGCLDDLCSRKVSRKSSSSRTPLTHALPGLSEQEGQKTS
Briefly: flow cytometry, CY5-labelled scFv on DU-145 cells. For orientation: A flow cytometer gives signals particle by particle.

For test [2], the target named is T1, GPC-1 (MIL-38 antigen) expressed by …. Briefly: binding to DU-145 cells, graded in Table 4.
Test [3] concerns the target T2, recombinant human GPC-1 (NS0-produced glypican-1 antigen) (human, UniProt P35052 24-530).
T2 construct: Bought recombinant protein; also called recombinant NS0 GPC-1; NS0-produced recombinant GPC-1 antigen
T2 sequence (looked up): T1 sequence (looked up)
Description: western blot, anti-mouse HRP detection. As for the experimental part:
Briefly, after transfer membranes were blocked with 5% skim milk in PBS-Tween (0.1%) for 2 h at room temperature. Primary antibodies (1 μg/ml in 5% skim milk—PBS-Tween (0.1%) were applied and incubated overnight at 4° C. After washing (3×10 min PBS-Tween (0.1%)) membranes were incubated with secondary antibody (1:2000 sheep-anti-mouse HRP-labelled in 5% skim milk—PBS-Tween (0.1%)). After washing (3×10 min PBS-Tween (0.1%)) antigen was detected by using ECL detection kit (Biorad) and imaging with LAS4000 mini (GE Life Science).
A general note: A western blot detects proteins with antibodies after separation by electrophoresis.

In test [4] the target is T2, recombinant human GPC-1 (NS0-produced …). Briefly: western blot, three-antibody detection.
Test [5] has as its target T1, GPC-1 (MIL-38 antigen) expressed by …. Description: flow cytometry on DU-145 cells (FIG. 10).
The target of test [6] is T2, recombinant human GPC-1 (NS0-produced …). Briefly: direct binding ELISA, GPC-1 coated. (In an ELISA, binding on a coated surface is turned into a signal by an enzyme label.)

B1: scFv MIL-38 (scFv)
scFv: QIQLVQSGPELKKPGETVKISCKASGYAFTDYSMNWVKQAPGKGLRWMGWINTETGEPTYTDDFKGRFAFSLETSASTAFLQINNLRNEDTATYFCARHYDYGGFPYWGQGTLVTVSSGGGGSGGGGSGGGGSDIQMTQSPASLSASVGETVTITCRASGNVHNYLAWYQQKQGKSPQLLVYTAKTLADGVPSRFSGSGSGTQYSLKINSLQPEDFGTYYCQHFWSNPWTFGGGTKLEIKHHHHHHC
modifications: CY5 fluorophor label (site not stated)
notes: VH (20-137), gly/ser linker (138-152), VL (153-259), hexa-His tag (260-265), C-terminal cysteine (266); Leader 1-19 is stated and left out; also called MIL-38 scFv; scFv MIL-38 construct
On to B1, for which, in test [1], the binding result is “binds”.

B2: murine MIL-38 monoclonal antibody, AM4 population, clone 1F5 (hybridoma CBA20140026) (antibody, mouse IgG1, kappa)
heavy: QIQLVQSGPELKKPGETVKISCKASGYAFTDYSMNWVKQAPGKGLRWMGWINTETGEPTYTDDFKGRFAFSLETSASTAFLQINNLRNEDTATYFCARHYDYGGFPYWGQGTLVTVSAAKTTPPSVYPLAPGSAAQTNSMVTLGCLVKGYFPEPVTVTWNSGSLSSGVHTFPAVLQSDLYTLSSSVTVPSSTWPSETVTCNVAHPASSTKVDKKIVPRDCGCKPCICTVPEVSSVFIFPPKPKDVLTITLTPKVTCVVVDISKDDPEVQFSWFVDDVEVHTAQTQPREEQFNSTFRSVSELPIMHQDWLNGKEFKCRVNSAAFPAPIEKTISKTKGRPKAPQVYTIPPPKEQMAKDKVSLTCMITDFFPEDITVEWQWNGQPAENYKNTQPIMDTDGSYFVYSKLNVQKSNWEAGNTFTCSVLHEGLHNHHTEKSLSHSPGK
light: DIQMTQSPASLSASVGETVTITCRASGNVHNYLAWYQQKQGKSPQLLVYTAKTLADGVPSRFSGSGSGTQYSLKINSLQPEDFGTYYCQHFWSNPWTFGGGTKLEIKRADAAPTVSIFPPSSEQLTSGGASVVCFLNNFYPKDINVKWKIDGSERQNGVLNSWTDQDSKDSTYSMSSTLTLTKDEYERHNSYTCEATHKTSTSPIVKSFNRNEC
notes: Mouse IgG1 kappa; Leader 1-19 (heavy) and 1-20 (light) are stated and left out; 1F5 is named an AM4 clone; also called AM4 MIL-38; AM4 1F5
In the case of B2, the binding result in test [2] and in test [3] was “binds” throughout.

B3: chimeric MIL-38 antibody (mouse VH-human CH1-CH3 heavy chain, mouse VK-human CK light chain) (antibody)
heavy: not shown
light: DIQMTQSPASLSASVGETVTITCRASGNVHNYLAWYQQKQGKSPQLLVYTAKTLADGVPSRFSGSGSGTQYSLKINSLQPEDFGTYYCQHFWSNPWTFGGGTKLEIKRTVAAPSVFIFPPSDEQLKSGTASVVCLLNNFYPREAKVQWKVDNALQSGNSQESVTEQDSKDSTYSLSSTLTLSKADYEKHKVYACEVTHQGLSSPVTKSFNRGEC
notes: Human IgG1 kappa constant regions; also called chMIL-38; MIL-38 chimeric antibody
Take B3: the binding result in test [2] and in test [4] was “binds” throughout.

B4: chimeric MIL-38 DOTA conjugate (antibody, human IgG1, kappa)
heavy: not shown
light: B3 light
modifications: p-SCN-Bn-DOTA conjugated; sites not stated; p-SCN-Bn-DOTA conjugated; 4.3, 4.6 or 7.5 DOTA per MAb for 5, 10 or 20 fold excess; sites not stated
notes: also called chMIL-38 DOTA; DOTA-cMIL-38
For the molecule B4, the binding result in test [5] and in test [6] was “binds” each time.
